# In paper PMC428907:
# B1: DR0975 protein (Deinococcus radiodurans R1 = ATCC 13939 = DSM 20539) (protein)
# chain: MGRRDLLVAAGILRDRFGRVLLVGNDWQGHGRVRHTLPGGVVEHGETLPEALYREIYEETGLKLTGIKHMAYTVHIEDERRGERAIAVAFEATWEGLLNPADPDGFIVEARFCTVDEALDKLDSPPMREPLADYLNTGEPGRFYAFKGWDGRGGLRIPTLKPVVKDR
# Legend:
# [1] = substrate: Nc1nc2c([nH]c(=O)n2[C@H]2C[C@H](O)[C@@H](COP(=O)(O)OP(=O)(O)O)O2)c(=O)[nH]1; assay: purified protein; details: pH 9.4, 7.5 mM Mg2+ (optimal conditions), 37°C
# [2] = substrate: Nc1nc2c(ncn2[C@H]2C[C@H](O)[C@@H](CO[P@](=O)(O)OP(=O)(O)O)O2)c(=O)[nH]1; assay: purified protein; details: pH 9.4, 7.5 mM Mg2+ (optimal conditions), 37°C
protein,measurement,setting,value
B1,Km,[1],170 µM
same,kcat,[1],0.13 s⁻¹
same,Km,[2],110 µM
same,kcat,[2],0.18 s⁻¹
